Reference: article doi:10.1101/2020.09.19.304535
pKd: −log10 of the molar value.

Biological target: GmPUB13(252-630), purified protein (soybean (Glycine max))
Assay: ITC

“Avr1d, purified protein (ITC and gel filtration) (natural protein)” gave a pKd of 7.05.
